From the supplement of paper PMC12042874
± gives the uncertainty stated by the source.

Assay: amyloid nucleation score (Sup35N fusion, yeast selection) (log enrichment); library NNK3; higher = more nucleation; inactive = no reads after selection
Summary of the method: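 DiMSum was used to calculate nucleation scores as log enrichment of output over input reads, centred on the mode score of non-aggregating sequences. Sequences with fewer than 100 input reads were not scored. Input and output came from Illumina sequencing of plasmid inserts in psi-negative yeast expressing peptides of 20 random codons fused to Sup35N, induced 24 hours with 100 μM copper sulfate and then grown 7 days at 30°C on medium lacking adenine and uracil.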

Substance | amyloid nucleation score
INLGLPVWSSIIFFNQSHNL | 0.679 ± 0.14
INPYVL | inactive
INQRVYESWLAFV | inactive
INSLFLRERICRVRCPGFAS | inactive
INSTRMAFVWR | inactive
INTEGLVVIVGGRLYVILRV | inactive
INTGQMQSAYETNLVMRKLA | inactive
INTLYMTDRDRSLPESVQNL | inactive
INVVSEFGFGLQSTFRSDLV | inactive
INWIWAYI | inactive
INYGTRQCVVQCIIVVCSLG | 2.17 ± 0.068
IPLLNVFSTRRSTCLEGSFT | inactive
IPLYHSWSVASLRLRNVVSW | inactive
IPVNYLASDMFN | inactive
IPVQFFVQIRSGIVHFWHER | 1.81 ± 0.11
IPWCSPDGLVRRYHHKR | inactive
IQFPDQ | inactive
IQHFFQINNWLLDI | 1.98 ± 0.07
IQLMLFIDCLSENCYVWLRY | inactive
IQMGGWIIMYSAGCGA | inactive
IQNANVRHYKRHRKFLTFIS | 1.27 ± 0.11
IQSYK | inactive
IRAYTDNDSNLSEFGVFTLV | inactive

Substance | amyloid nucleation score
IRCRQNPGSHVIRYFCCRRS | inactive
IRDASWTKNLEFECLLFKPS | inactive
IRFSKTLRVIVHGEGNGKLC | inactive
IRGIVV | inactive
IRHVHLSRYSTRTDGNNQLD | inactive
IRLLATF | inactive
IRLVMETLGNLGIADKSMRV | inactive
IRNERRQGSCGIIISRNCYV | inactive
IRPSHYIYLRTN | inactive
IRQVLCCESLRLGSYMQINT | inactive
IRRHYAYCYNISTITVIAEI | inactive
IRSAVVV | -0.53 ± 1.8
IRSIM | inactive
IRSSREFYMSVYRTEAWVLE | inactive
IRSVKISSGYLLISYGDNNW | 0.687 ± 0.18
IRTIIQKKMWACDHVFGSPA | inactive
IRYVFPFDIAHYFYLTKRYG | inactive
ISCSKLTR | inactive
ISCYLSDPVYS | -0.493 ± 1
ISFCYALCCNKMKRLLARCK | inactive
ISFSSES | inactive
ISHFTARFVSPPMQWLRTCF | inactive
ISIFWSIEGSNYLHLILHQG | inactive

Substance | amyloid nucleation score
ISLFFRICY | 0.397 ± 0.27
ISLGVMCYYVPIPGCECTNI | inactive
ISMNLVLFMWFRRIGFLICL | inactive
ISNLRYRSWAYLVRSFCSVL | inactive
ISRFCYSSINRRGFLGNFVF | inactive
ISSVQISRAFPQHRTRRN | inactive
ISTDSVIHTTMEHSGE | inactive
ISTSLMDRRTKMLRQM | inactive
ISVAWWGCSTAYRRCKD | 1.14 ± 0.12
ISVLERLGYMFVSRHMLLVW | inactive
ISVLVKWLVAERTSYWIMIP | inactive
ISVVFSGKNSLKEMRMKMAG | 0.469 ± 0.21
ISVYHVLTHKL | 1.49 ± 0.12
ISYVKFY | inactive
ITCANALLCDGSRFSM | 0.741 ± 0.16
ITFNRSSSKNCSQKVKGRTL | inactive
ITIMSDQETSHVWLVDRTLP | 0.298 ± 0.17
ITPTFYVARTKPMLTGGCPK | inactive
ITRDDTCSVYRLVK | inactive
ITRGTYRSPFSFNTRFESGS | inactive
ITSFFESHTVQVYAFYIRVF | inactive
ITVIGQLIALKQFSTLTRSI | inactive
ITVVQANMSVWSTARVDMLD | 1.12 ± 0.16

Substance | amyloid nucleation score
ITWWLVIVAARSEGSCSPFQ | 0.158 ± 0.27
ITYKGLIWMSQGHVACRSRM | -0.008 ± 0.7
IVCCQYQNYLNGSPLNIVLI | inactive
IVCHHRDYFLAYYYEMLHCR | inactive
IVCISLCLAAEKQPSGCEFG | 2.01 ± 0.068
IVEDVGYLHLYRIQFGGVSE | inactive
IVHCWLMSGASVWTLQETPN | -0.105 ± 1.4
IVNFACCVWSLYSSREFNML | 3.22 ± 0.07
IVPAWLFGV | inactive
IVQAFVSVLSY | inactive
IVRHVVYVSCGIQYCDHFWH | inactive
IVSTSYNWDDACYDRTLQGG | inactive
IVSVQVVLLYQM | 1.12 ± 0.14
IVVEQLHDWDIPMKGTTFRS | inactive
IVVLWV | -0.341 ± 0.39
IVVQSNHAYTLVRTDSLVWM | 1.17 ± 0.11
IVVRPR | 1.24 ± 0.17
IVYFPLILGAIIYWMSETHL | inactive
IWRDLGRLIQLFWNEIYHVN | inactive
IWRLLGSWVSVTMDIYHWSS | inactive
IWSNTYPSIRSLWMSFGVVI | inactive
IWVLSCRLISRTRFICDRRM | 0.057 ± 0.93
IWWNIYCFTVTSSVD | 2.21 ± 0.095

Substance | amyloid nucleation score
IYGLLVDRRAVIFFEYMHLV | inactive
IYGTANSKFSCIIYR | 2.09 ± 0.091
IYLASSLNRILISEQSILPG | inactive
IYLDFNASWLACNKLICLRN | 1.01 ± 0.13
IYLKYSSYRNSLIILAVD | inactive
IYLNFNKILLMILQIQLWGN | -0.19 ± 0.64
IYMSRKSLVMDVWQRHRDKE | inactive
IYNTGHSSRYLRTPVFAWSE | inactive
IYPMLW | -0.428 ± 0.62
IYQWTEFCGRIFQSCRMVLC | inactive
IYRGHVRQKELFCHRREIQW | inactive
IYSIVFFSRSLTVRVFGAHY | inactive
IYSLYRCPFAVCLSSNWSCF | 1.78 ± 0.11
IYSRVSRLIH | inactive
IYSVVGCWKPSSVSDMAGLL | inactive
IYSWTGLSTTLKFLGMSLLL | -0.218 ± 0.71
IYTNWYEFRV | inactive
IYVRAFRWFMNKVTSTAWTI | inactive
IYVTIEFASIVCSCWESLDR | -0.091 ± 0.8
IYYHIETSSAVASWYWRCAT | inactive
IYYSRHEYSDCV | inactive
KAPRMVLLRSGIVMLAHSEN | inactive
KASHWV | inactive

Substance | amyloid nucleation score
KASLPNR | inactive
KATLRCCEPYVNDMVVANLK | inactive
KCAQEYGEVLS | -0.591 ± 0.8
KCDEDCYAFDVYLSMGYDVS | inactive
KCIQWTGRDAYFEICYKQLD | 1.12 ± 0.11
KCMAI | inactive
KCMCNLRSMFASCLYTCVVI | inactive
KDFIMHNILYMRRWAFTPLA | inactive
KDLRYTVFEVWDKYWPLTGL | inactive
KDPEVQVRK | inactive
KFGCSYTNYSITSPDNPSC | inactive
KFGWWLFDSVSDTNLWYRRS | inactive
KFKSRGRSTMLLVFNIVWRV | -0.476 ± 0.42
KFNVFPIHGALWTCSVSAYH | inactive
KFPWT | inactive
KFRWVFYFGSAMEVREGSEF | -0.141 ± 0.45
KFSCSDNPE | inactive
KFVLETFCHSKPRLVLVNHD | inactive
KGGTLRRLTLSGTGTSQPSE | inactive
KGHDAHVAVRVFTGGGLV | inactive
KGSHFFAIFGW | inactive
KGYSRYQSVHRSNRELYNQA | -0.563 ± 0.64
KHMSHRCILMLSPYSDRNIM | inactive

Substance | amyloid nucleation score
KICSIVPLYIRGGHSLGSVV | inactive
KIFRIYICDCELYHTNGMWA | 1.56 ± 0.1
KIFVSFNKSKLEVHPPLKVI | inactive
KIGQSFSV | inactive
KIGSLVKECCGLPVYYALLK | inactive
KISMSRVVFDNSSTGTIEGQ | inactive
KIWYLSIYVYFYVYYLDGSL | inactive
KKQGSWRKNITISRVCVVLG | inactive
KKYFSVRWVTFWISRV | inactive
KLFWMIVCGVLNLNSNNYGG | 2.57 ± 0.084
KLGKESRSFLMTTRNVDRRF | 1.43 ± 0.11
KLHPTYLCNQNPRELWLITY | inactive
KLICKERYVVYSVILVLKEL | inactive
KLILFLTRVFRSFQVSWRQF | inactive
KLMLHNEYMPGVQLLLNQYK | 0.436 ± 0.46
KLSLMAVNLSWIYFCL | 0.182 ± 0.27
KLSWTPRLLNSYSLLEYVQD | inactive
KLYLLLLYFLDMTVFWFVAV | inactive
KLYNLFWNVETMVERLLLVA | inactive
KMQCPNYACGCKDCVYTNFY | inactive
